T1: mFcgRIV (Mus musculus, UniProt A0A0B4J1G0)
T1 sequence (A0A0B4J1G0 21-249): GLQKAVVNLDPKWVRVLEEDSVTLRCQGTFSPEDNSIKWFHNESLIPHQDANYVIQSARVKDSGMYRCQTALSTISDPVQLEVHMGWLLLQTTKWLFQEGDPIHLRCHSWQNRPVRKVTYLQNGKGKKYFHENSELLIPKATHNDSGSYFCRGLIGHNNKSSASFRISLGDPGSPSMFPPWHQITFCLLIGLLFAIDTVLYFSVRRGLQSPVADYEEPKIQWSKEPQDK

T2: mFcgRII (Mus musculus, UniProt P08101)
T2 sequence (P08101 30-330): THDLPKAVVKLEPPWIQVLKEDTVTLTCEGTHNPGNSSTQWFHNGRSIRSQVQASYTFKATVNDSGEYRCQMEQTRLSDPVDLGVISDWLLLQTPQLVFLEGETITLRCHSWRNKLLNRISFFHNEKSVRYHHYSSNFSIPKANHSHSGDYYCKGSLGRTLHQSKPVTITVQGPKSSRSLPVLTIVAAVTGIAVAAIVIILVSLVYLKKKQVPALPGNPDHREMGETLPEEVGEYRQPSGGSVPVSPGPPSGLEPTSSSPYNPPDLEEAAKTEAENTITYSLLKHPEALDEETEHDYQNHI

T3: mFcgRIII (Mus musculus, UniProt P08508)
T3 sequence (P08508 31-261): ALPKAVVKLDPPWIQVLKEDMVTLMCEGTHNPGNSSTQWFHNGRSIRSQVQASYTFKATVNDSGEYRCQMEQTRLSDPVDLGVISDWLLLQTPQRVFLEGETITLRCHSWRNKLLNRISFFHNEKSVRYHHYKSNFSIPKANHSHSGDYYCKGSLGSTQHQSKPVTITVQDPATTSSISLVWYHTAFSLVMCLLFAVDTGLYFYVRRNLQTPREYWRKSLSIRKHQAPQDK

T4: mFcgRI (Mus musculus, UniProt P26151)
T4 sequence (P26151 25-404): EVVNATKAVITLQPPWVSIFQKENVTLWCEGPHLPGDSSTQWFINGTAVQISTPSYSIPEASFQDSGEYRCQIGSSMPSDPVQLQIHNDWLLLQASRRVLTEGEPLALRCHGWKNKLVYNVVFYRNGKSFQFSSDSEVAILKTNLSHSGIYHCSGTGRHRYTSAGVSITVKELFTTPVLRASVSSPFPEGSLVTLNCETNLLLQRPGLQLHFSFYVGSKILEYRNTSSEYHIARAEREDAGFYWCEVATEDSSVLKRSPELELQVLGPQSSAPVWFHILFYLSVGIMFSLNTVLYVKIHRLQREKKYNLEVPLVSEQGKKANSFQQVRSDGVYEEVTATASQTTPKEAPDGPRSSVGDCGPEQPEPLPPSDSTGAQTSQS


Columns and labels:
[1] = test system: CT26.WT cells; experiment: Combined use of mCTLA4/mCD3 and gemcitabine, CT26.WT cell-transplanted model; type: in vivo; conditions: final measurement point; mCTLA4/mCD3 25 μg/mouse day 9, gemcitabine 120 mg/kg day 8, tail vein; n=5; FIG. 19
Experimental: BALB/cA mice and C57BL/6N mice were purchased from Charles River Laboratories Japan, Inc. The CT26.WT cells or the CT26/hGPC3 cells were transplanted subcutaneously to BALB/cA mice, and the LL/2 (LLC1) cells or the LLC1/hGPC3 cells were transplanted subcutaneously to C57BL/6N mice. Models were established when the average volume of the transplanted tumors reached approximately 100 mm^3 to 200 mm^3.
The volume of the transplanted tumor was calculated using the following equation: Tumor volume (mm^3)=major axis (mm)×minor axis (mm)×minor axis (mm)/2
As the pharmaceutical agents to be administered for the combined use test, the anti-mouse CTLA4/anti-mouse CD3 bispecific monoclonal antibody (mCTLA4/mCD3) was prepared at 0.125 mg/mL in PBS (−), and a pyrimidine analog (antimetabolite), gemcitabine (Gemzar: Eli Lilly Japan) was prepared at 12 mg/mL in physiological saline solution (Otsuka Pharmaceutical).
To evaluate the effects of combined use of the anti-mouse CTLA4/anti-mouse CD3 bispecific monoclonal antibody (mCTLA4/mCD3) and gemcitabine, the CT26.WT cell-transplanted model was used and given through the tail vein gemcitabine at 120 mg/kg eight days after transplantation and […] at 25 μg/mouse nine days after transplantation.
Antitumor effects were evaluated from the tumor volumes calculated using the equation shown in (2) of Example 1. […]

[2] = test system: mouse CTLA4-expressing cells (CHO/mouse CTLA4 cells); experiment: ADCC activity, chromium-release assay with mFcgR4-NK92 effector cells; type: cell-based; conditions: antibody 0, 0.04, 0.4, 4, 40 μg/ml, FIG. 5
Description: Whether anti-mouse CTLA4 antibody hUH02hUL01-mFa55 purified and prepared by the method of Reference Example 2-1 exerts ADCC activity on mouse CTLA4-expressing cells (mouse CTLA4-expressing cells were produced by a method known to those skilled in the art by introducing the full length mouse CTLA4 gene into CHO cells) was examined according to the method of Reference Example 11.
Regarding anti-mouse CTLA4 antibodies, antibody concentration-dependent ADCC activities of test antibodies were measured, using the mouse FcgR4-expressing human NK cell line NK-92 (hereinafter referred to as mFcgR4-NK92) as effector cells by following the method described below.
After washing mFcgR4-NK92 with RPMI-1640 (nacalai tesque) containing 10% FBS (hereinafter referred to as 10% FBS/RPMI), the cells were suspended in 10% FBS/RPMI at a cell density of 4×10^5 cells/ml. […]
The ADCC activities were evaluated from the specific chromium release rate according to the chromium release method. […] The radioactivity of 100 μl of culture supernatant in each well of the plate was measured using a gamma counter. The specific chromium release rate was determined based on the following equation. […] The examinations were performed in duplicate and the mean value for the specific chromium release rate (%) of the test antibody was calculated.

[3] = target: T1, mFcgRIV; experiment: Biacore T200 binding of anti-mouse CTLA4 antibody to mouse FcgR; conditions: 1:1 binding RI = 0, 25° C., pH7.4
Experimental: (§1) Anti-mouse CTLA4 antibody hUH02hUL01-mFa55 and control antibody hUH02hUL01-mIgG2a (the heavy chain variable region UH02 is SEQ ID NO: 28, the light chain variable region UL01 is SEQ ID NO: 29, the heavy chain constant region mIgG2a is SEQ ID NO: 32, and the light chain constant region mk1 is SEQ ID NO: 31) purified and prepared by the method of Reference Example 2-1 were analyzed for their antigen-antibody reactions with various mouse FcgRs (mFcgRI, II, III, and IV) using Biacore™ T200 (GE Healthcare). The running buffer used was 20 mmol/L ACES, 150 mmol/L NaCl, 0.05% (w/v) Tween®20 at pH7.4, and measurements were taken at 25° C. Protein A/G was immobilized onto a Sensor Chip CM7 by amine coupling. hUH02hUL01-mFa55 was captured onto the sensorchip, and then FcgR was allowed to interact as an analyte for 120 seconds, and change in the bound amount was observed. The running buffer was used for dilution of hUH02hUL01-mFa55. The measurement results were analyzed by curve fitting using the Biacore™ T200 Evaluation Software (GE Healthcare) to calculate the association rate constants ka (l/Ms) and the dissociation rate constants kd (l/s). From those values, the dissociation constants KD (M) were determined.

[4] = target: T2, mFcgRII; experiment: as above; conditions: 1:1 binding RI = 0, 25° C., pH7.4
Experimental: as §1

[5] = target: T3, mFcgRIII; experiment: as above; conditions: 1.1 binding RI = 0, 25° C., pH7.4
Experimental: as §1

[6] = target: T4, mFcgRI; experiment: as above; conditions: 1:1 binding RI = 0, 25° C., pH7.4
Experimental: as §1

Row | Molecule | tumor volume vs. the PBS-administered group (Tukey multiple comparison test) [1] | ADCC activity (specific chromium release rate) [2] | ka [3] [M⁻¹ s⁻¹] | kd [3] [s⁻¹] | ka [4] [M⁻¹ s⁻¹] | kd [4] [s⁻¹] | ka [5] [M⁻¹ s⁻¹] | kd [5] [s⁻¹] | ka [6] [M⁻¹ s⁻¹] | kd [6] [s⁻¹]
1 | Nc1ccn([C@@H]2O[C@H](CO)[C@@H](O)C2(F)F)c(=O)n1 [gemcitabine] | significant differences (p<0.05) | – | – | – | – | – | – | – | – | –
2 | hUH02hUL01-mFa55: anti-mouse CTLA4 antibody, mouse IgG2a/kappa, constant region mFa55 modified to enhance binding to mouse FcγR (ADCC-enhanced) (antibody) heavy: QVQLQESGPGLVKPSETLSLTCTVSGYSISSGYGWNWIRQPPGKGLEWIGFIYYEGSTYYNPSIKSRISITRDTSKNQFFLQVNSVTTEDTATYYCARQTGYFDYWGQGTLVTVSSAKTTAPSVYPLAPVCGDTTGSSVTLGCLVKGYFPEPVTLTWNSGSLSSGVHTFPAVLQSDLYTLSSSVTVTSSTWPSQSITCNVAHPASSTKVDKKIEPRGPTIKPCPPCKCPAPNLLGGPDVFIFPPKIKDVLMISLSPIVTCVVVDVSEDDPDVQISWFVNNVEVHTAQTQTHREDYNSTLRVVSALPIQHQDWMSGKEFKCKVNNKDLPAPIERTISKPKGSVRAPQVYVLPPPEEEMTKKQVTLTCMVTDFMPEDIYVEWTNNGKTELNYKNTEPVLDSDGSYFMYSKLRVEKKNWVERNSYSCSVVHEGLHNHHTTKSFSRTPGK light: DIVMTQSPDSLAVSLGERATINCKSSQSLFNSNAKTNYLNWYQQKPGQPPKLLIYYASTRHTGVPDRFSGSGSGTDFTLTISSLQAEDVAVYYCQQWYDYPYTFGAGTKVEIKRADAAPTVSIFPPSSEQLTSGGASVVCFLNNFYPKDINVKWKIDGSERQNGVLNSWTDQDSKDSTYSMSSTLTLTKDEYERHNSYTCEATHKTSTSPIVKSFNRNEC | – | ADCC activity in an antibody concentration-dependent manner | 1.5e+06 | 0.0028 | 2.1e+06 | 0.76 | 2.4e+06 | 0.62 | 1.2e+06 | 0.0031
